Data from the supplement of paper PMC10065799, “High-throughput profiling of sequence recognition by tyrosine kinases and SH2 domains using bacterial peptide display” (eLife, 2023).

Legend:
SHP2-C SH2 = test: SH2 binding enrichment of the phosphorylated peptide, bacterial display (enrichment ratio); higher = better substrate or ligand; peptides without Tyr show the background
c-Src SH2 = test: as above
Grb2 SH2 = Grb2 SH2 (UniProt P62993); test: as above
AncSZ = test: phosphorylation enrichment, bacterial display (enrichment ratio); higher = better substrate or ligand; peptides without Tyr show the background
FGFR3 = FGFR3 (UniProt P22607); test: as above
c-Src = test: as above
c-Abl (mouse) = test: as above
EPHB1 = EPHB1 (UniProt P54762); test: as above
Fer (mouse) = test: as above
Hck = Hck (UniProt P08631); test: as above
FGFR1 = FGFR1 (UniProt P11362); test: as above
MERTK = MERTK (UniProt Q12866); test: as above
Fyn = Fyn (UniProt P06241); test: as above
EPHB2 = EPHB2 (UniProt P29323); test: as above
Fes = Fes (UniProt P07332); test: as above
Jak2 = Jak2 (UniProt O60674); test: as above
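For SH2 binding enrichment of the phosphorylated peptide, bacterial display in this document: peptide library displayed on the E. coli surface as eCPX fusions, selected cells deep-sequenced, score is each peptide's frequency after selection divided by its frequency in the input.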
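For phosphorylation enrichment, bacterial display in this document: 11-residue human phosphosite peptides and single-mutation variants displayed on the E. coli surface, counted by deep sequencing, each peptide's frequency after selection divided by its frequency in the unselected input library; frequency after pTyr selection over input frequency; kinase dosed for 20-30% of maximal phosphorylation in three min.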

EPHB1, sequence (P54762 whole entry, looked up): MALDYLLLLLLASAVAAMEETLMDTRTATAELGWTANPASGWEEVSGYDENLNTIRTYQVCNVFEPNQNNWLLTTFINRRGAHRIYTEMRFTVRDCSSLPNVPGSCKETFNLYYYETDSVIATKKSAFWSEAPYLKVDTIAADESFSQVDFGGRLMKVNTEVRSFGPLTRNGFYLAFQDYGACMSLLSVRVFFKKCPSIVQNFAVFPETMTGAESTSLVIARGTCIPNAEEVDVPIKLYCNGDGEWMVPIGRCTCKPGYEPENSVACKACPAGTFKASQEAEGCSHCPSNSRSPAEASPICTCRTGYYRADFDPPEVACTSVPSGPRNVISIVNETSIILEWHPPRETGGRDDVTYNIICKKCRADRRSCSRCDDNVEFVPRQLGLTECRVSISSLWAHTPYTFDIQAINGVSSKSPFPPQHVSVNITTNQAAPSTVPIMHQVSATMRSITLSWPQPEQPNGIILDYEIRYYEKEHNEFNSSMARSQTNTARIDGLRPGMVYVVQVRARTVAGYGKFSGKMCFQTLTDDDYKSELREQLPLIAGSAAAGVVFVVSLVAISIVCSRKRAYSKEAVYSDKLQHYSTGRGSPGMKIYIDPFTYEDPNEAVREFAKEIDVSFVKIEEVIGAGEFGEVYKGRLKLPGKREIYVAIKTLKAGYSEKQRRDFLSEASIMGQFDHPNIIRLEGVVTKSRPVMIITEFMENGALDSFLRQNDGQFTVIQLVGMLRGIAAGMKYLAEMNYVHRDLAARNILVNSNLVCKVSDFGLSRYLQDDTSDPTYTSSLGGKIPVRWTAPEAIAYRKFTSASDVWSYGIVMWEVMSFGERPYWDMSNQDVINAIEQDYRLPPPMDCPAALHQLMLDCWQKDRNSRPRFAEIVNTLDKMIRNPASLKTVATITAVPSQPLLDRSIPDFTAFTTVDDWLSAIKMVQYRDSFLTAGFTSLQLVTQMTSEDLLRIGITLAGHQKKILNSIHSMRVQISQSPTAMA
Hck, sequence (P08631 whole entry, looked up): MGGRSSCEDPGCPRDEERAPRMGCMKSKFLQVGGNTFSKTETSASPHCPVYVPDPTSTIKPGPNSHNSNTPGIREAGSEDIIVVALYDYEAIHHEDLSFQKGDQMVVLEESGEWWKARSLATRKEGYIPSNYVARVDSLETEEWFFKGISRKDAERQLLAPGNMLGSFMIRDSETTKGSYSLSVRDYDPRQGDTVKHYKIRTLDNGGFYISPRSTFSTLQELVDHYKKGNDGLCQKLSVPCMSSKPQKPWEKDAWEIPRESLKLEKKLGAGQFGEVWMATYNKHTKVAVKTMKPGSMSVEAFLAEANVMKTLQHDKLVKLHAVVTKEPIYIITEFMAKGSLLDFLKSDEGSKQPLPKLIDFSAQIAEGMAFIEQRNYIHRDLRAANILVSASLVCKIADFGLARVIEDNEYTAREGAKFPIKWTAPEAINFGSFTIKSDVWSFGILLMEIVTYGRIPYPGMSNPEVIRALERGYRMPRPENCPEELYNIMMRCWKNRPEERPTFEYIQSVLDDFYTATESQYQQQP
EPHB2, sequence (P29323 whole entry, looked up): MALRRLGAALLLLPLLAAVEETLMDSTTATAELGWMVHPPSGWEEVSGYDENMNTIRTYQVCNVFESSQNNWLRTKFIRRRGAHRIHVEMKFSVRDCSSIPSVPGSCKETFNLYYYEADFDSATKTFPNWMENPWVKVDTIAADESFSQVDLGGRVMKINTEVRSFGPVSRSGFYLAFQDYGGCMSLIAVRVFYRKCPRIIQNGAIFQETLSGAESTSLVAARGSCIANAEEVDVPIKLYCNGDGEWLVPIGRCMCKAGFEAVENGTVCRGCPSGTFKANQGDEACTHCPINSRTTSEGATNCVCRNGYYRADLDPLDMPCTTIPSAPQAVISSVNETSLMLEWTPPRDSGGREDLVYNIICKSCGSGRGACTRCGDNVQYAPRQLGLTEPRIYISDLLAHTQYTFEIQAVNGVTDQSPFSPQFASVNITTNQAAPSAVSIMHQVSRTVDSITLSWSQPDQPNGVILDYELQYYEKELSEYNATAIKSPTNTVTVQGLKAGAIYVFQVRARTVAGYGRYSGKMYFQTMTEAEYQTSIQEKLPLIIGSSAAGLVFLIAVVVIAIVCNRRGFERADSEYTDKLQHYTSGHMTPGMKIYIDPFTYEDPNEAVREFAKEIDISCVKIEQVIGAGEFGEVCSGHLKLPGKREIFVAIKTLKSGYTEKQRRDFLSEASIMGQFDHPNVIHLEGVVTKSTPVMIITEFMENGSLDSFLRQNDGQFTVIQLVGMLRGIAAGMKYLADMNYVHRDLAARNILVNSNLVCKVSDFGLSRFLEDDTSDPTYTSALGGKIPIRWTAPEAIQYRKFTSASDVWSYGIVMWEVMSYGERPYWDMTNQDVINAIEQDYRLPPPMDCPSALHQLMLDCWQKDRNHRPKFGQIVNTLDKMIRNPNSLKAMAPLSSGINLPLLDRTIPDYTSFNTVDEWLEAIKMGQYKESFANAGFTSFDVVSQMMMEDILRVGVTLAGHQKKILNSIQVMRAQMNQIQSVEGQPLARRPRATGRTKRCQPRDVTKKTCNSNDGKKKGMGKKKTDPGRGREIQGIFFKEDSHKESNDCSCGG
MERTK, sequence (Q12866 whole entry, looked up): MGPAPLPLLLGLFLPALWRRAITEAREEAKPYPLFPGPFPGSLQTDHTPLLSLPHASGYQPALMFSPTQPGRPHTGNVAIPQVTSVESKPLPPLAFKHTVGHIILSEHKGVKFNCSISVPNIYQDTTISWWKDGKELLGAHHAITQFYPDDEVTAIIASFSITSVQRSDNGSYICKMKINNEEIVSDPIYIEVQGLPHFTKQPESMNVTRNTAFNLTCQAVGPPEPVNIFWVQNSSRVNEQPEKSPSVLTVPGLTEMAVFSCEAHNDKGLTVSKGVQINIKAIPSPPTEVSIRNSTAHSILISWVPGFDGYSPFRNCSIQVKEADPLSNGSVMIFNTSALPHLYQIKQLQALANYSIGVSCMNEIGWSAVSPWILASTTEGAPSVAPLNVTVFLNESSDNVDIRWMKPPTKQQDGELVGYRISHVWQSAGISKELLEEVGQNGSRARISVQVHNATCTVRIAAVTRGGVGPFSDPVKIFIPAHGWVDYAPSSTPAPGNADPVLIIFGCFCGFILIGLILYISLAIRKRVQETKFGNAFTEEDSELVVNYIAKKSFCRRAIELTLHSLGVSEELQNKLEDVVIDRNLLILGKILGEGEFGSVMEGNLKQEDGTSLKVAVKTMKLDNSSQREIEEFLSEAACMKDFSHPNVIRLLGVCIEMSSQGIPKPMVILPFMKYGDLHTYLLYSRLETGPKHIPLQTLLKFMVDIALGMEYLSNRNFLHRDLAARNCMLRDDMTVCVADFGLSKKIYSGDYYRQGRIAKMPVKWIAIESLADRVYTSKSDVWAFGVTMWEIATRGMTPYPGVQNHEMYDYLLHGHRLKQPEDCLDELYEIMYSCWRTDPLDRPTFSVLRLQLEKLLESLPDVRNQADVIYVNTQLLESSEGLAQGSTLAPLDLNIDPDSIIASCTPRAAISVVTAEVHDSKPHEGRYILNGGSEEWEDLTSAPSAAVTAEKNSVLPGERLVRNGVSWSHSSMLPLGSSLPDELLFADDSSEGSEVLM
Grb2 SH2, sequence (P62993 whole entry, looked up): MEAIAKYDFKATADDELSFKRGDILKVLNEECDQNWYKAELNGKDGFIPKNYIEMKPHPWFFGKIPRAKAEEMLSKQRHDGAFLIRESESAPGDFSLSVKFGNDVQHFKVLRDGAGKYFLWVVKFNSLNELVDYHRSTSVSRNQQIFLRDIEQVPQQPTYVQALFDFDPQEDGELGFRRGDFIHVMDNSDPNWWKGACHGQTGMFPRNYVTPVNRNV
FGFR1, sequence (P11362 whole entry, looked up): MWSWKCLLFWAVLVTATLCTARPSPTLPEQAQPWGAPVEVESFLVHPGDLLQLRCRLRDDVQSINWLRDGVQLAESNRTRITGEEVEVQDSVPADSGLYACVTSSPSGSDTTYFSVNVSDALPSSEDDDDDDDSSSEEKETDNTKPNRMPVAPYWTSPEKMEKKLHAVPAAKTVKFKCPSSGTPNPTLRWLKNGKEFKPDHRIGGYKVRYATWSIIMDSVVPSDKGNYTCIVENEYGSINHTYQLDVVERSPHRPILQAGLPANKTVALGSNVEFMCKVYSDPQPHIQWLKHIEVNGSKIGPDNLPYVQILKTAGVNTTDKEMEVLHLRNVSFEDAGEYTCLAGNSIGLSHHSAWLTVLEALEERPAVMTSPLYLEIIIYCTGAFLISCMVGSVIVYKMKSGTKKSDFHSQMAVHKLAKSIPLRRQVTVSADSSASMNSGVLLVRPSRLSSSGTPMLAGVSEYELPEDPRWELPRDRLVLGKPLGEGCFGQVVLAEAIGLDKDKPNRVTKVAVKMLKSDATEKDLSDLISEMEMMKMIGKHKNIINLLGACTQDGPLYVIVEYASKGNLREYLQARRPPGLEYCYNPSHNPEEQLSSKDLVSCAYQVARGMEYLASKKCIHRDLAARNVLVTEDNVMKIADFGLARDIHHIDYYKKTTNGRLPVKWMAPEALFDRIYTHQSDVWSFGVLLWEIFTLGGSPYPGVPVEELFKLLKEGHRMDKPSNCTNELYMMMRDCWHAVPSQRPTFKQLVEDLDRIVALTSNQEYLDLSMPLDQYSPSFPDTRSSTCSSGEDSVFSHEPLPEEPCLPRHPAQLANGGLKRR

Row | Sequence | SH2 binding enrichment (SHP2-C SH2) | SH2 binding enrichment (c-Src SH2) | SH2 binding enrichment (Grb2 SH2) | phosphorylation enrichment (AncSZ) | phosphorylation enrichment (FGFR3) | phosphorylation enrichment (c-Src) | phosphorylation enrichment (c-Abl (mouse)) | phosphorylation enrichment (EPHB1) | phosphorylation enrichment (Fer (mouse)) | phosphorylation enrichment (Hck) | phosphorylation enrichment (FGFR1) | phosphorylation enrichment (MERTK) | phosphorylation enrichment (Fyn) | phosphorylation enrichment (EPHB2) | phosphorylation enrichment (Fes) | phosphorylation enrichment (Jak2)
1 | HAEERYGKELV [PSTPIP1_Y53_Q48H] | 0.7 | 0.362 | 0.755 | 1.26 | 1.02 | 0.569 | 0.688 | 0.881 | 0.732 | 1.02 | 1.09 | 0.382 | 0.614 | 0.806 | 1.26 | 1.06
2 | HAVFVYDICHV [TWNK_Y508_YF] | 1.27 | 0.531 | 0.895 | 1.88 | 1.05 | 4.61 | 1.47 | 1.49 | 3.38 | 2.8 | 0.631 | 2.62 | 4.27 | 1.36 | 2.02 | 1.65
3 | HEVHIYENSGA [ARPC1B_Y35_K37N] | 1.03 | 6.64 | 12.4 | 1.44 | 0.892 | 0.865 | 1.32 | 1.38 | 1.26 | 1.62 | 0.703 | 0.826 | 1.04 | 1.28 | 2.27 | 1.31
4 | HFVDEYDQTIE [KRAS_Y32_P34Q] | 0.62 | 0.592 | 0.973 | 2.79 | 0.852 | 0.935 | 1.01 | 1.1 | 0.667 | 0.835 | 0.93 | 0.804 | 0.897 | 1.07 | 2.04 | 2.14
5 | HGEAYYSEVKP [PAK5_Y182] | 0.795 | 2.44 | 0.769 | 2.68 | 1.93 | 2.99 | 1.79 | 2.27 | 11.2 | 3.85 | 3.13 | 11.2 | 1.96 | 1.8 | 1.62 | 1.7
6 | HHIDYYKETTN [FGFR1_Y654_K656E] | 0.996 | 1.47 | 0.985 | 1.13 | 0.935 | 0.997 | 0.878 | 1.03 | 0.893 | 0.799 | 1.09 | 0.866 | 0.646 | 0.814 | 1.39 | 0.979
7 | HIAKGYRRDNP [HARS1_Y156_V155G] | 0.43 | 0.213 | 0.456 | 0.731 | 0.326 | 0.451 | 0.543 | 0.363 | 0.438 | 0.572 | 0.33 | 0.399 | 0.427 | 0.429 | 0.539 | 0.409
8 | HICTAYKLVLA [DHCR24_Y190_E191K] | 0.56 | 0.45 | 0.867 | 1.88 | 2.2 | 1.34 | 0.969 | 1.49 | 1.52 | 1.47 | 2.66 | 0.832 | 1.3 | 1.53 | 2.86 | 1.88
9 | HISGVYKLPPD [ANGPTL7_Y145_R140H] | 0.925 | 0.459 | 0.957 | 1.79 | 0.67 | 2.3 | 0.697 | 0.556 | 0.618 | 0.718 | 0.585 | 0.725 | 3.26 | 0.6 | 1.33 | 1
10 | HKANEYYPVVL [ADAMTS18_Y764] | 0.907 | 0.985 | 0.902 | 2.86 | 15.7 | 1.65 | 2.49 | 1.47 | 2.6 | 1.95 | 23.2 | 1.13 | 0.956 | 1.45 | 1.22 | 9.18
11 | HKNNNYEPSLF [BRCA2_Y57_N60S] | 0.72 | 0.866 | 0.931 | 1.13 | 0.891 | 0.658 | 0.659 | 0.689 | 0.791 | 0.563 | 0.793 | 0.654 | 0.652 | 0.766 | 1 | 0.897
12 | HMEAVYIDIAD [PITPNA_Y140_V136M] | 0.847 | 0.696 | 1.23 | 3.91 | 10.2 | 3.62 | 1.06 | 9.76 | 8.49 | 2.85 | 13.6 | 1.43 | 3.86 | 5.08 | 2.85 | 2.26
13 | HNGVSYYINLC [IGF2R_Y2024] | 1 | 0.431 | 1.14 | 1.43 | 1.1 | 0.419 | 1.15 | 0.805 | 0.577 | 0.597 | 0.605 | 0.513 | 0.581 | 0.541 | 1.5 | 1.35
14 | HNLDYYKETTN [FGFR3_Y648_K650E] | 0.874 | 0.732 | 1.24 | 1.25 | 2.12 | 0.47 | 0.788 | 0.633 | 0.766 | 0.734 | 2.08 | 0.553 | 0.597 | 0.857 | 1.06 | 1.01
15 | HNLNYYKKTTN [FGFR3_Y648_D646N] | 0.683 | 0.479 | 0.738 | 0.791 | 0.531 | 0.429 | 0.554 | 0.337 | 0.461 | 0.258 | 0.468 | 0.479 | 0.491 | 0.361 | 0.507 | 0.648
16 | HPAGNYSLSSV [ARFGAP3_Y473_Q468H] | 0.79 | 0.603 | 0.804 | 0.49 | 0.458 | 0.425 | 0.867 | 0.706 | 0.619 | 0.553 | 0.562 | 0.625 | 0.409 | 0.58 | 0.666 | 0.672
17 | HRDSSYFWEIE [RAF1_Y340_Q335H_YF] | 0.52 | 0.802 | 0.856 | 1.34 | 0.984 | 0.888 | 1.13 | 0.59 | 0.497 | 0.638 | 1.02 | 0.628 | 0.579 | 0.629 | 1.8 | 2.02

Row | Sequence | SH2 binding enrichment (SHP2-C SH2) | SH2 binding enrichment (c-Src SH2) | SH2 binding enrichment (Grb2 SH2) | phosphorylation enrichment (AncSZ) | phosphorylation enrichment (FGFR3) | phosphorylation enrichment (c-Src) | phosphorylation enrichment (c-Abl (mouse)) | phosphorylation enrichment (EPHB1) | phosphorylation enrichment (Fer (mouse)) | phosphorylation enrichment (Hck) | phosphorylation enrichment (FGFR1) | phosphorylation enrichment (MERTK) | phosphorylation enrichment (Fyn) | phosphorylation enrichment (EPHB2) | phosphorylation enrichment (Fes) | phosphorylation enrichment (Jak2)
18 | HRGFLYLAIEF [TEK_Y899_Y897F_YF] | 0.819 | 0.556 | 1.13 | 1.49 | 1.02 | 0.687 | 1.52 | 0.765 | 0.968 | 0.627 | 0.515 | 0.711 | 0.352 | 0.539 | 1.67 | 1.7
19 | HSPLRYTSILT [OR51B6_Y130_R125H] | 9.46 | 5.39 | 1.21 | 0.915 | 0.849 | 0.574 | 0.547 | 0.782 | 0.892 | 0.683 | 1.19 | 0.634 | 0.823 | 0.602 | 1.4 | 0.807
20 | HSVLNYGVCVC [JAK2_Y613_L609S] | 0.929 | 0.584 | 0.853 | 0.91 | 0.84 | 0.595 | 0.925 | 0.87 | 0.692 | 0.62 | 0.674 | 0.482 | 0.564 | 0.905 | 1.57 | 1.17
21 | HTLQLYRCREE [ALPK3_Y342] | 0.658 | 0.406 | 0.672 | 0.953 | 0.7 | 0.603 | 0.329 | 0.499 | 0.575 | 0.522 | 0.898 | 0.607 | 0.573 | 0.588 | 1.03 | 0.574
22 | IALNSYHSRNC [IFNGR1_Y397] | 0.814 | 0.534 | 0.917 | 0.584 | 0.525 | 0.4 | 0.599 | 0.383 | 0.347 | 0.469 | 0.464 | 0.469 | 0.417 | 0.492 | 0.715 | 0.521
23 | ICGVSYDEYRY [CFTR_Y512_F508C] | 0.681 | 1.77 | 0.751 | 1.46 | 1.01 | 1.11 | 0.943 | 0.733 | 0.599 | 0.633 | 0.478 | 0.463 | 0.637 | 0.704 | 1.58 | 1.26
24 | IDFARYWHGND [MMP11_Y162_D166N] | 0.708 | 0.525 | 0.807 | 0.918 | 0.551 | 0.345 | 0.504 | 0.556 | 0.423 | 0.479 | 0.508 | 0.372 | 0.431 | 0.486 | 0.835 | 0.564
25 | IFGVSYGEFRF [CFTR_Y512_D513G_YF] | 1.08 | 0.705 | 1.06 | 0.941 | 0.646 | 5.39 | 0.779 | 0.576 | 0.504 | 4.06 | 0.383 | 0.465 | 5.32 | 0.561 | 1.09 | 0.99
26 | IFHLSYIHNCE [PDE6B_Y227_L228I_YF] | 0.856 | 0.853 | 0.976 | 1.16 | 0.91 | 0.352 | 0.745 | 0.699 | 0.526 | 0.577 | 0.495 | 0.392 | 0.494 | 0.71 | 1.35 | 1.04
27 | IGEGTYRTVFK [CDK5_Y15_G16R] | 0.614 | 0.47 | 0.674 | 0.542 | 0.533 | 0.558 | 0.638 | 0.362 | 0.317 | 0.532 | 0.353 | 0.384 | 0.459 | 0.432 | 0.738 | 0.781
28 | IGEVVYQRAVM [GRIN2A_Y502] | 0.484 | 0.477 | 0.752 | 0.869 | 0.595 | 1.57 | 8.27 | 0.883 | 1.46 | 2.19 | 0.434 | 0.513 | 1.14 | 0.554 | 0.856 | 0.688
29 | IHETTHNSIMK [ACTA1_Y281_Y281H] | 0.537 | 0.43 | 0.736 | 0.452 | 0.39 | 0.262 | 0.401 | 0.304 | 0.347 | 0.463 | 0.425 | 0.38 | 0.43 | 0.349 | 0.469 | 0.471
30 | IHFAIYLLKFS [ARMC9_Y107_YF] | 1.45 | 1.13 | 1.69 | 0.891 | 0.684 | 0.499 | 0.668 | 0.561 | 0.303 | 0.521 | 0.363 | 0.414 | 0.458 | 0.457 | 1.06 | 1.03
31 | IHHIDYYKKTT [FGFR1_Y653] | 1.22 | 0.567 | 0.793 | 0.783 | 0.484 | 0.487 | 0.524 | 0.408 | 0.961 | 0.425 | 0.473 | 0.508 | 0.381 | 0.544 | 0.741 | 0.534
32 | IHRWVYPLTPE [EIF2B5_Y319_R315H] | 1.29 | 1.06 | 1.25 | 1.03 | 0.698 | 0.446 | 0.621 | 0.525 | 0.405 | 0.487 | 0.488 | 0.487 | 0.511 | 0.503 | 0.918 | 0.885
33 | IIQRAYRRHLL [SCN1A_Y1926] | 0.381 | 0.439 | 0.769 | 0.845 | 0.525 | 0.584 | 0.552 | 0.479 | 0.497 | 0.576 | 0.499 | 0.608 | 0.509 | 0.433 | 0.619 | 0.491
